Results from paper PMC4890538.

Tests used:
[1] = target: recombinant Glutathione-S-Transferase (GST) tagged PfLDH (Plasmodium falciparum lactate dehydrogenase) (Plasmodium falciparum); assay: fluorescence polarisation
[2] = target: recombinant Glutathione-S-Transferase (GST) tagged PfLDH (Plasmodium falciparum lactate dehydrogenase) (Plasmodium falciparum)

Chain of recombinant Glutathione-S-Transferase (GST) tagged PfLDH (Plasmodium falciparum lactate dehydrogenase) (Plasmodium falciparum) (Q27743 whole entry): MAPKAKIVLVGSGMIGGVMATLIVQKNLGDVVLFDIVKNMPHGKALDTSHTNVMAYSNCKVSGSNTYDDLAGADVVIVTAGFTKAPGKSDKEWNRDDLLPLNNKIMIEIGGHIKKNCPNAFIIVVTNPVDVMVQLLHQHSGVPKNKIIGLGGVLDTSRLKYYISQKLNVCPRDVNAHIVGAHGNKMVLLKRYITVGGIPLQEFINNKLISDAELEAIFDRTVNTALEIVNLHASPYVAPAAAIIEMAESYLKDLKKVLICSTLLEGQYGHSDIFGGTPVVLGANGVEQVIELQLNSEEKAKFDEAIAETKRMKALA

Binder: HWSAN (not fully specified) [Cy(HWSAN-click), fluorescein tagged]
- Kd [1]: 40.6 nM

Binder: HWSAN (not fully specified) [Cy(HWSAN-click), biotin tagged]
- EC50 [2]: 23.4 nM
